We go through one substance from patent US20100291070A1.

The target of the experiment is PA1698 protein on Pseudomonas aeruginosa PA103 strain cells (Pseudomonas aeruginosa (PA103 strain)). Nature of the experiment: whole cell ELISA on immobilised P. aeruginosa PA103, 50 ug/well. (In general: ELISA stands for enzyme-linked immunosorbent assay.)

In turn, “negative control IgG fraction purified from control rat sera obtained by administering only adjuvant (antibody)” returned an absorbance at 450 nm of 0.084.
